For this assay, the target named is Ndc80 complex (Ndc80-Flag:Nuf2:Spc24:Spc25) (S. cerevisiae, UniProt P40460 1-691; P33895 1-451; Q04477 1-213; P40014 1-221). As to the kind of experiment: SEC. (In gel filtration, larger molecules generally elute earlier.)
Ndc80 complex (Ndc80-Flag:Nuf2:Spc24:Spc25), sequence (P40460 whole entry, chain 1 of 4): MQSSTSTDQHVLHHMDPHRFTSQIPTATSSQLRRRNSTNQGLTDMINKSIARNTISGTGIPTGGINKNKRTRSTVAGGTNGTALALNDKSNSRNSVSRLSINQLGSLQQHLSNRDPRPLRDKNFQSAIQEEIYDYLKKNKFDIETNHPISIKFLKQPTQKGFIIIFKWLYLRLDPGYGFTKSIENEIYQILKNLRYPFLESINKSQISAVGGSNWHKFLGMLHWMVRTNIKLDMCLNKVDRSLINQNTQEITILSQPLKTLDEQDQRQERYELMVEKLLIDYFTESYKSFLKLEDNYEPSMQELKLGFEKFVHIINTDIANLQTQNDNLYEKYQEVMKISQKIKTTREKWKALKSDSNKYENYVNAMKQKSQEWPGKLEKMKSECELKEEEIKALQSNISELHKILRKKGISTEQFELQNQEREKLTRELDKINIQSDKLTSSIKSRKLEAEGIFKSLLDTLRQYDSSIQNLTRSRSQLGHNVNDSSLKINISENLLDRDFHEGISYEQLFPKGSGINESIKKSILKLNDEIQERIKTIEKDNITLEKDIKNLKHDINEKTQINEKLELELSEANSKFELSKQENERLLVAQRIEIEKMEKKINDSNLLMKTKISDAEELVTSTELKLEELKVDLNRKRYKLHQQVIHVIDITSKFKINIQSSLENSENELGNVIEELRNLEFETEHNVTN
Ndc80 complex (Ndc80-Flag:Nuf2:Spc24:Spc25), sequence (P33895 whole entry, chain 2 of 4): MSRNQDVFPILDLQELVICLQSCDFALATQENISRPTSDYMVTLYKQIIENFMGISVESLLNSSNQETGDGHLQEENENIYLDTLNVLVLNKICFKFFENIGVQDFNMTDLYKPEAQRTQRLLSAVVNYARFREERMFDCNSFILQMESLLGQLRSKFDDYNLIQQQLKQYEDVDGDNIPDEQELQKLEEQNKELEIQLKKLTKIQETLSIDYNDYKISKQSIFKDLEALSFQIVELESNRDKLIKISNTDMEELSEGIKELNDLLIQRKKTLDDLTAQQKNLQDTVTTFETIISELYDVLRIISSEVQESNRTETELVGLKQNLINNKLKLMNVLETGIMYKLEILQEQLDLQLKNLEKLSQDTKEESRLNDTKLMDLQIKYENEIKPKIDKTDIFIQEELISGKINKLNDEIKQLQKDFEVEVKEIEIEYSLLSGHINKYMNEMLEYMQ
Ndc80 complex (Ndc80-Flag:Nuf2:Spc24:Spc25), sequence (Q04477 whole entry, chain 3 of 4): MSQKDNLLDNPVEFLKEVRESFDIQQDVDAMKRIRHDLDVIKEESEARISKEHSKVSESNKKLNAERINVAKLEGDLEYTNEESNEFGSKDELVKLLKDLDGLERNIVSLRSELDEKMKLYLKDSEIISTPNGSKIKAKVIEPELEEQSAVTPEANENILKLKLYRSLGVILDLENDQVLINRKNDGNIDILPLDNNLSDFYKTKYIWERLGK
Ndc80 complex (Ndc80-Flag:Nuf2:Spc24:Spc25), sequence (P40014 whole entry, chain 4 of 4): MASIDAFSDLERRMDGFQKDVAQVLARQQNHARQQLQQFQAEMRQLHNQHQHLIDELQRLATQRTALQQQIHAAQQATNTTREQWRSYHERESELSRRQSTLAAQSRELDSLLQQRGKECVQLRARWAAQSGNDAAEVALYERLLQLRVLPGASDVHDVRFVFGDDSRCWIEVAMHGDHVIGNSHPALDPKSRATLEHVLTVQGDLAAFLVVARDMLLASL

B1: StrepII-tagged full-length Mps1 (wild type) (natural protein, S. cerevisiae, UniProt P54199 1-764, looked up)
chain: MSTNSFHDYVDLKSRTNTRQFSDDEEFTTPPKLSNFGSALLSHTEKTSASEILSSHNNDKIANRLEEMDRSSSRSHPPPSMGNLTSGHTSTSSHSTLFGRYLRNNHQTSMTTMNTSDIEINVGNSLDKSFERIRNLRQNMKEDITAKYAERRSKRFLISNRTTKLGPAKRAMTLTNIFDEDVPNSPNQPINARETVELPLEDSHQTNFKETKRNTDYDSIDFGDLNPIQYIKKHNLPTSDLPLISQIYFDKQREENRQAALRKHSSRELLYKSRSSSSSLSSNNLLANKDNSITSNNGSQPRRKVSTGSSSSKSSIEIRRALKENIDTSNNSNFNSPIHKIYKGISRNKDSDSEKREVLRNISINANHADNLLQQENKRLKRSLDDAITNENINSKNLEVFYHRPAPKPPVTKKVEIVEPAKSASLSNNRNIITVNDSQYEKIELLGRGGSSRVYKVKGSGNRVYALKRVSFDAFDDSSIDGFKGEIELLEKLKDQKRVIQLLDYEMGDGLLYLIMECGDHDLSQILNQRSGMPLDFNFVRFYTKEMLLCIKVVHDAGIVHSDLKPANFVLVKGILKIIDFGIANAVPEHTVNIYRETQIGTPNYMAPEALVAMNYTQNSENQHEGNKWKVGRPSDMWSCGCIIYQMIYGKPPYGSFQGQNRLLAIMNPDVKIPFPEHTSNNEKIPKSAIELMKACLYRNPDKRWTVDKVLSSTFLQPFMISGSIMEDLIRNAVRYGSEKPHISQDDLNDVVDTVLRKFADYKI
Consider B1, for which the binding result was “binds”.

B2: StrepII-tagged full-length Mps1^bp (R151D R152D R155D) (natural protein, S. cerevisiae, UniProt P54199 1-764, looked up)
chain: MSTNSFHDYVDLKSRTNTRQFSDDEEFTTPPKLSNFGSALLSHTEKTSASEILSSHNNDKIANRLEEMDRSSSRSHPPPSMGNLTSGHTSTSSHSTLFGRYLRNNHQTSMTTMNTSDIEINVGNSLDKSFERIRNLRQNMKEDITAKYAEDDSKDFLISNRTTKLGPAKRAMTLTNIFDEDVPNSPNQPINARETVELPLEDSHQTNFKETKRNTDYDSIDFGDLNPIQYIKKHNLPTSDLPLISQIYFDKQREENRQAALRKHSSRELLYKSRSSSSSLSSNNLLANKDNSITSNNGSQPRRKVSTGSSSSKSSIEIRRALKENIDTSNNSNFNSPIHKIYKGISRNKDSDSEKREVLRNISINANHADNLLQQENKRLKRSLDDAITNENINSKNLEVFYHRPAPKPPVTKKVEIVEPAKSASLSNNRNIITVNDSQYEKIELLGRGGSSRVYKVKGSGNRVYALKRVSFDAFDDSSIDGFKGEIELLEKLKDQKRVIQLLDYEMGDGLLYLIMECGDHDLSQILNQRSGMPLDFNFVRFYTKEMLLCIKVVHDAGIVHSDLKPANFVLVKGILKIIDFGIANAVPEHTVNIYRETQIGTPNYMAPEALVAMNYTQNSENQHEGNKWKVGRPSDMWSCGCIIYQMIYGKPPYGSFQGQNRLLAIMNPDVKIPFPEHTSNNEKIPKSAIELMKACLYRNPDKRWTVDKVLSSTFLQPFMISGSIMEDLIRNAVRYGSEKPHISQDDLNDVVDTVLRKFADYKI
For the molecule B2, the binding result is recorded as “binds”.

Values taken from article doi:10.1101/2023.10.30.564738 (bioRxiv, 2023).
